Experimental data taken from the supplement of paper PMC10567573.

Assay: protein stability index of a GFP-peptide fusion (GPS, HEK-293T) (PSI 1-6); higher = more stable
Conditions: c terminus: native
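Note: lentivirally expressed fusion library, cells FACS-sorted into six equal-sized GFP/DsRed ratio bins, PSI computed from sequencing read fractions per bin weighted by bin number.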

EQRNSRWNTVLRAVKAKTHHLEPL [TRPA1 addL]
protein stability index (parent: NP_015628.1): 4.2

DGWIRVSSDNVADLHEKYSGSTPL [PSMB5 addL]
protein stability index (parent: NP_002788.1): 3.47

LPALFTDLYSQEITAEEAREALPL [SNF8 addL]
protein stability index (parent: NP_009172.2): 3.71

CQPISFSGFGAEDDDLGGLGLGPL [POLD2 addL]
protein stability index (parent: NP_006221.1): 2.66
